Read-outs that look alike come from different tables or passages of the source. Where no end group is shown, it is not given here.
Legend:
[1] = target: T1, PSMA Fab; test: BLI (Octet); PSMA Fab on sensor-loaded biotinylated peptide, 1:1 model
T1 construct: also called 006 PSMA Fab; anti-PSMA Fab

[2] = target: T1, PSMA Fab; test: binding ELISA; PSMA Fab titrated on plate-captured biotinylated peptide
[3] = target: T1, PSMA Fab; test: competition ELISA; peptide 0-100 µM with 0.3 nM PSMA Fab on plate-captured biotinylated PSMA
[4] = target: T1, PSMA Fab; test: as above; remark: listed apart in the source
[5] = target: T2, Anti-CD28 Fab (SEQ ID NOs: 696, 697); test: phage binding ELISA on captured Fab; competitor: CD28 antigen pre-incubated in the wells
T2 construct: Biotinylated and captured on neutravidin coated plates in the phage ELISA
T2 sequence (VH, as listed by the source, chain 1 of 2): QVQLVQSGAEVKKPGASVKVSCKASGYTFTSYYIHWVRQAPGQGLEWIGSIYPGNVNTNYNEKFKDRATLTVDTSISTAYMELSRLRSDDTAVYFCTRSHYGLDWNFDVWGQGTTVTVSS
T2 sequence (VL, as listed by the source, chain 2 of 2): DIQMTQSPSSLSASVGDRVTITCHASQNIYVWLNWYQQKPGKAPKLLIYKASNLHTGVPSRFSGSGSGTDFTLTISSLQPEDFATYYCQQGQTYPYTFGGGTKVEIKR
Procedure: (§1) After panning, phage infected bacteria were plated out and colonies picked into 96 well blocks. Clonal phage was then amplified and separated from bacterial cells via centrifugation.
(§2) Clonal phage were harvested as crude supematants and screened via standard ELISAs. […] Prior to the addition of clonal phage, wells were incubated with blocking buffer and CD28 antigen or blocking buffer alone. Without washing or aspirating, clonal phage supematants were then added to the wells and incubated for a short time. Wells were then washed followed by detection of bound phage using a horse radish conjugated anti-M13 antibody. Clonal phage of interest were then sent for sequence analysis.

[6] = target: T2, Anti-CD28 Fab (SEQ ID NOs: 696, 697); test: phage binding ELISA; biotinylated Fab on neutravidin plate, clonal phage supernatant, anti-M13 HRP; background signal 0.06
Procedure: as §1, §2

[7] = target: T3, Anti-CD28 Fab (SEQ ID NOs: 696, 697); test: phage binding ELISA; biotinylated anti-CD28 Fab captured on neutravidin plate, clonal phage supernatant, anti-M13 HRP detection
T3 construct: In the phage ELISA the Fab was biotinylated and captured on neutravidin coated plates
T3 sequence (VH, as listed by the source, chain 1 of 2): as the sequence (VH, as listed by the source, chain 1 of 2) above
T3 sequence (VL, as listed by the source, chain 2 of 2): as the sequence (VL, as listed by the source, chain 2 of 2) above
Procedure: as §1, §2

[8] = target: T3, Anti-CD28 Fab (SEQ ID NOs: 696, 697); test: phage binding ELISA on captured anti-CD28 Fab; wells pre-incubated with CD28 antigen as competitor
Procedure: as §1, §2

[9] = target: anti-CD28 Fab; test: competition ELISA, peptide titrated 0-100 uM against 1 nM anti-CD28 Fab, plate-bound CD28 as competitor
Target sequence in this assay (VH, as listed by the source, chain 1 of 2): as the sequence (VH, as listed by the source, chain 1 of 2) above
Target sequence in this assay (VL, as listed by the source, chain 2 of 2): as the sequence (VL, as listed by the source, chain 2 of 2) above

[10] = target: anti-CD28 Fab; test: as above; remark: listed apart in the source
Target sequence in this assay (VH, as listed by the source, chain 1 of 2): as the sequence (VH, as listed by the source, chain 1 of 2) above
Target sequence in this assay (VL, as listed by the source, chain 2 of 2): as the sequence (VL, as listed by the source, chain 2 of 2) above

[11] = target: anti-CD28 Fab; test: as above; remark: listed apart in the source
Target sequence in this assay (VH, as listed by the source, chain 1 of 2): as the sequence (VH, as listed by the source, chain 1 of 2) above
Target sequence in this assay (VL, as listed by the source, chain 2 of 2): as the sequence (VL, as listed by the source, chain 2 of 2) above

[12] = target: T1, PSMA Fab; test: competition ELISA; peptide 0-100 µM with 0.3 nM PSMA Fab on plate-captured biotinylated PSMA; remark: listed apart in the source
[13] = target: T1, PSMA Fab; test: BLI (Octet); PSMA Fab on sensor-loaded biotinylated peptide, 1:1 model; remark: listed apart in the source
[14] = target: T1, PSMA Fab; test: competition ELISA; peptide 0-100 µM with 0.3 nM PSMA Fab on plate-captured biotinylated PSMA; remark: listed apart in the source
Procedure: The concentration of peptide required to reduce the maximum signal by 50% (IC₅₀) was calculated in Graphpad Prism software.

[15] = target: T1, PSMA Fab; test: binding ELISA; PSMA Fab titrated on plate-captured biotinylated peptide; remark: listed apart in the source
[16] = target: anti-CD28 Fab; test: BLI (Octet): biotinylated peptide on streptavidin sensor, anti-CD28 Fab titrated in solution, 1:1 model
Target sequence in this assay (VH, as listed by the source, chain 1 of 2): as the sequence (VH, as listed by the source, chain 1 of 2) above
Target sequence in this assay (VL, as listed by the source, chain 2 of 2): as the sequence (VL, as listed by the source, chain 2 of 2) above

[17] = target: T4, anti-CD28 scFv (disulfide); test: competition ELISA: peptide titrated (0-100 µM) with 0.3 nM anti-CD28 scFv (disulfide), binding to plate-bound CD28
T4 construct: also called Anti-CD28 scFv (VH - linker 1 - VL) Disulfide mutation: G44C, G235C
T4 sequence (scFv, as listed by the source): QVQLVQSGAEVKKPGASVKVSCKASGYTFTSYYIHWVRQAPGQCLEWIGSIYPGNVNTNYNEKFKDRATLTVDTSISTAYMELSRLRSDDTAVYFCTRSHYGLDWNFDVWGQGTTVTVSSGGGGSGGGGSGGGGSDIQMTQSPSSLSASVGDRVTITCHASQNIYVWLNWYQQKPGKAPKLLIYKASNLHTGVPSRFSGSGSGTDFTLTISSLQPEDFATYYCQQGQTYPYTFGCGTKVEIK

B1: Peptide-179 (peptide)
peptide: LMKWCTPRWMCAAE
modifications: cysteine pairing not given here; also: biotinylated, site not given here
notes: PSMA mask peptide
- Off rate t1/2 [1]: 1.2 min
- EC50 [2]: 0.11 µM
- IC50 [3]: 6.49 µM
- IC50 [4]: 7.71 µM

B2: Peptide-244 (peptide)
peptide: LMKACTPRWMCAAE
- IC50 [3]: 34.5 µM

B3: Peptide-245 (peptide)
peptide: LMKWCAPRWMCAAE
- IC50 [3]: 49.7 µM

B4: Peptide-250 (peptide)
peptide: LMKWCTPRWMCAAA
- IC50 [3]: 6.64 µM

B5: Peptide-241 (peptide)
peptide: AMKWCTPRWMCAAE
- IC50 [3]: 9.16 µM

B6: Peptide-243 (peptide)
peptide: LMAWCTPRWMCAAE
- IC50 [3]: 40.8 µM

B7: Peptide-247 (peptide)
peptide: LMKWCTPAWMCAAE
- IC50 [3]: 19.7 µM

B8: Peptide-242 (peptide)
peptide: LAKWCTPRWMCAAE
- IC50 [3]: 13.7 µM

B9: Phage-1012 (Peptide-87 library peptide, SEQ ID NO: 1328) (peptide)
peptide: YCEGHMPQYMEKCL
notes: tested as crude clonal phage supernatant
- Anti-CD28 Fab signal in the presence of CD28 (phage binding ELISA) [5]: 0.06
- Anti-CD28 Fab signal (phage binding ELISA) [6]: 1.51

B10: Phage-1329 (Peptide-87 library sequence, SEQ ID NO: 1645) (peptide)
peptide: YCDGHSQIYMSKCL
- Phage binding ELISA, Anti-CD28 Fab signal [7]: 0.42
- Phage binding ELISA, Anti-CD28 Fab signal in the presence of CD28 [8]: 0.06

B11: Phage-1010 (Peptide-87 library peptide, SEQ ID NO: 1326) (peptide)
peptide: YCDGHSELYMAKCL
notes: as for B9
- Anti-CD28 Fab signal in the presence of CD28 (phage binding ELISA) [5]: 0.06
- Anti-CD28 Fab signal (phage binding ELISA) [6]: 1.51

B12: Peptide-92 (peptide)
peptide: SCAAGASYAWPYCL
- IC50 [9]: 2.39 µM
- IC50 [10]: 11.8 µM
- IC50 [11]: 7.89 µM

B13: Peptide-236 (peptide)
peptide: DVKLCKPEWMCYGL
- Off rate t1/2 [1]: 1.8 min
- EC50 [2]: 0.0198 µM
- IC50 [4]: 0.38 µM

B14: Peptide-232 (peptide)
peptide: LDKWCVPKWMCSGL
- Off rate t1/2 [1]: 2.1 min
- EC50 [2]: 0.0072 µM
- IC50 [4]: 0.96 µM

B15: Peptide-98 (peptide)
peptide: YCAGHSHEYLAKCE
- IC50 [9]: 7.04 µM

B16: Phage-1022 (Peptide-87 library peptide, SEQ ID NO: 1338) (peptide)
peptide: YCDGHSEQYIAKCL
notes: as for B9
- Anti-CD28 Fab signal in the presence of CD28 (phage binding ELISA) [5]: 0.08
- Anti-CD28 Fab signal (phage binding ELISA) [6]: 1.49

B17: Peptide-227 (peptide)
peptide: LDNWCKPSWMCTGF
- Off rate t1/2 [1]: 2.1 min
- EC50 [2]: 0.0077 µM
- IC50 [4]: 0.76 µM

B18: Peptide-219 (peptide)
peptide: HVKLCKPAWMCQGL
- Off rate t1/2 [1]: 2.9 min
- EC50 [2]: 0.0061 µM

B19: Phage-1328 (Peptide-87 library sequence, SEQ ID NO: 1644) (peptide)
peptide: YCAGHASEYLQKCL
- Phage binding ELISA, Anti-CD28 Fab signal [7]: 0.43
- Phage binding ELISA, Anti-CD28 Fab signal in the presence of CD28 [8]: 0.06

B20: Peptide-239 (peptide)
peptide: IDIRCTPIWMCVGF
- Off rate t1/2 [1]: 2 min
- EC50 [2]: 0.0094 µM
- IC50 [4]: 0.62 µM

B21: Phage-1020 (Peptide-87 library peptide, SEQ ID NO: 1336) (peptide)
peptide: YCEGHIMQYMAQCL
notes: as for B9
- Anti-CD28 Fab signal in the presence of CD28 (phage binding ELISA) [5]: 0.06
- Anti-CD28 Fab signal (phage binding ELISA) [6]: 1.49

B22: Peptide-97 (peptide)
peptide: YCMGHSHEHIWKCL
- IC50 [9]: 69.1 µM

B23: Phage-1327 (Peptide-87 library sequence, SEQ ID NO: 1643) (peptide)
peptide: YCDGHLPEYMEKCL
- Phage binding ELISA, Anti-CD28 Fab signal [7]: 0.43
- Phage binding ELISA, Anti-CD28 Fab signal in the presence of CD28 [8]: 0.07

B24: Phage-1331 (Peptide-87 library sequence, SEQ ID NO: 1647) (peptide)
peptide: YCTGWQVAYMQNCF
- Phage binding ELISA, Anti-CD28 Fab signal [7]: 0.42
- Phage binding ELISA, Anti-CD28 Fab signal in the presence of CD28 [8]: 0.06

B25: Peptide-180 (peptide)
peptide: IAVLCQPNWMCAGF
modifications: cysteine pairing not given here; also: biotinylated, site not given here
notes: PSMA mask peptide
- IC50 [12]: 4.14 µM
- Off rate t1/2 [13]: 0.6 min
- IC50 [14]: 5.23 µM
- EC50 [15]: 0.102 µM

B26: Peptide-260 (peptide)
peptide: IAVLCQPNWMCAGA
notes: Alanine-scan variant F14A of Peptide-180
- IC50 [14]: 60 µM

B27: Peptide-254 (peptide)
peptide: IAVLCAPNWMCAGF
notes: Alanine-scan variant Q6A of Peptide-180
- IC50 [14]: 15.7 µM

B28: Peptide-259 (peptide)
peptide: IAVLCQPNWMCAAF
notes: Alanine-scan variant G13A of Peptide-180
- IC50 [14]: 67.9 µM

B29: Peptide-256 (peptide)
peptide: IAVLCQPAWMCAGF
notes: Alanine-scan variant N8A of Peptide-180
- IC50 [14]: 2.16 µM

B30: Peptide-253 (peptide)
peptide: IAVACQPNWMCAGF
notes: Alanine-scan variant L4A of Peptide-180
- IC50 [14]: 28.2 µM

B31: Peptide-252 (peptide)
peptide: IAALCQPNWMCAGF
notes: Alanine-scan variant V3A of Peptide-180
- IC50 [14]: 5.7 µM

B32: Peptide-251 (peptide)
peptide: AAVLCQPNWMCAGF
notes: Alanine-scan variant I1A of Peptide-180
- IC50 [14]: 8.45 µM

B33: Peptide-230 (peptide)
peptide: VTKWCIPPWMCEVT
- Off rate t1/2 [1]: 6.4 min

B34: Peptide-96 (peptide)
peptide: YCAGHTEEHYVKCM
- IC50 [9]: 7.59 µM

B35: Phage-1014 (Peptide-87 library peptide, SEQ ID NO: 1330) (peptide)
peptide: YCDGHSQEYMEKCL
notes: as for B9
- Anti-CD28 Fab signal in the presence of CD28 (phage binding ELISA) [5]: 0.06
- Anti-CD28 Fab signal (phage binding ELISA) [6]: 1.5

B36: Phage-1013 (Peptide-87 library peptide, SEQ ID NO: 1329) (peptide)
peptide: YCEGHSLMYMAKCL
notes: as for B9
- Anti-CD28 Fab signal in the presence of CD28 (phage binding ELISA) [5]: 0.06
- Anti-CD28 Fab signal (phage binding ELISA) [6]: 1.5

B37: Peptide-132 (peptide)
peptide: YCEGHLPEYRNKCL
modifications: cysteine pairing not given here; also: biotinylated, site not given here
- Kd [16]: 0.11 µM
- t1/2 [16]: 0.8 min
- IC50 [17]: 0.78 µM

B38: Peptide-134 (peptide)
peptide: YCEGHLPEYIQKCL
modifications: not fully specified; cysteine pairing not given here; also: biotinylated, site not given here
- t1/2 [16]: 1 min
- IC50 [17]: 0.48 µM

B39: Peptide-225 (peptide)
peptide: IPKSCIPSWMCTGF
- Off rate t1/2 [1]: 2.1 min
- EC50 [2]: 0.0097 µM
- IC50 [4]: 0.34 µM

B40: Peptide-235 (peptide)
peptide: VEKLCTPIWMCLGF
- Off rate t1/2 [1]: 2.3 min
- EC50 [2]: 0.0105 µM
- IC50 [4]: 0.32 µM

B41: Phage-1330 (Peptide-87 library sequence, SEQ ID NO: 1646) (peptide)
peptide: YCDGHWPGYLWKCL
- Phage binding ELISA, Anti-CD28 Fab signal [7]: 0.42
- Phage binding ELISA, Anti-CD28 Fab signal in the presence of CD28 [8]: 0.06

B42: Peptide-95 (peptide)
peptide: YCAGHMPQYEVKCL
- IC50 [9]: 43.6 µM

B43: Phage-1021 (Peptide-87 library peptide, SEQ ID NO: 1337) (peptide)
peptide: YCDGHLPIYQAKCL
notes: as for B9
- Anti-CD28 Fab signal in the presence of CD28 (phage binding ELISA) [5]: 0.1
- Anti-CD28 Fab signal (phage binding ELISA) [6]: 1.49

B44: Peptide-233 (peptide)
peptide: GEKWCIPDWMCSGF
- Off rate t1/2 [1]: 3.9 min
- EC50 [2]: 0.0069 µM
- IC50 [4]: 0.36 µM

From patent US20260242478A1 (published 2026)
